Results from the DeepSol protein solubility set.

assay: soluble on expression in E. coli; label from the status in PepcDB or PDB records

| Sequence | soluble on expression in E. coli |
| --- | --- |
| MTKSLESVSFKDVTVDFSRDEWQQLDLAQKSLYREVMLENYFNLISVGCQVPKPEVIFSLEQEEPCMLDGEIPSQSRPDGDIGFGPLQQRMSEEVSFQSEININLFTRDDPYSILEELWKDDEHTRKCGENQNKPLSRVVFINKKTLANDSIFEYKDIGEIVHVNTHLVSSRKRPHNCNSCGKNLEPIITLYNRNNATENSDKTIGDGDIFTHLNSHTEVTACECNQCGKPLHHKQALIQQQKIHTRESLYLFSDYVNVFSPKSHAFAHESICAEEKQHECHECEAVFTQKSQLDGSQRVYAGICTEYEKDFSLKSNRQKTPYEGNYYKCSDYGRAFIQKSDLFRCQRIHSGEKPYEYSECEKNLPQNSNLNIHKKIHTGGKHFECTECGKAFTRKSTLSMHQKIHTGEKPYVCTECGKAFIRKSHFITHERIHTGEKPYECSDCGKSFIKKSQLHVHQRIHTGENPFICSECGKVFTHKTNLIIHQKIHTGERPYICTVCGKAFTDRSNLIKHQKIHTGEKPYKCSDCGKSFTWKSRLRIHQKCHTGERHYECSECGKAFIQKSTLSMHQRIHRGEKPYVCTECGKAFFHKSHFITHERIHTGEKPYECSICGKSFTKKSQLHVHQQIHTGEKPYRCAECGKAFTDRSNLFTHQKIHTGEKPYKCSDCGKAFTRKSGLHIHQQSHTGERHYECSECGKAFARKSTLIMHQRIHTGEKPYICNECGKSFIQKSHLNRHRRIHTGEKPYECSDCGKSFIKKSQLHEHHRIHTGEKPYICAECGKAFTIRSNLIKHQKIHTKQKPYKCSDLGKALNWKPQLSMPQKSDNGEVECSMPQLWCGDSEGDQGQLSSI | soluble |
| MSHVQAVIFDAFGTITRIENARHPFRQLLKLGIAQGRRPKPDDASMLMRHPWGLAQAADHFGIDVTPAELARIQAELDAEVASIQPFADALACIEALQAHGLKVAVCSNLARPYGAAVKRIFPGLESYGFSYEIGTLKPDRRIYEAALTELAVDACKVWMIGDSQRCDRDGPIALGIKGHYLNRTGAGSPSDFRDLMAFKHSVFESRSP | not soluble |
| MPIMSIISCKIMQDEIIWILENDSSIDETIIIDSENILEFVEKLDKVNLQYKVLSLEDISSLAEIRSECKNYTVMIHLMELGLHRSPKELKIKVYETIKTLAPFSSGILLFYGLCGNVLGDVEKDFERSSTSCPVRILKDKDHRIVDDCIGATVGGVNNYLRILKSVSDAGTYLFTPMYSKGWRELLDLNKLNKDPSKALKLMKKTHEMIGYKRVAKINTGLEYTENFDASIQEFAELFDFEILEFDDGNQKIFEDCYNELKAELLEHHHHHH | not soluble |
| MRLFTPEAMREADRKAVERGYPSLLLMEWAGMKAARVYLELFGKAPALVLAGKGNNGGDGLVLARHLLLEGVGVRVYAAGGQTGDALLALQALLAHGVEVRPLEEASFREGEVVVDALFGTGLKGPLTDFYAELVERVNRAGLPVLALDLPSGLPFSPHVRATATVAFAALKTPHLFQREACGKLYLAEIGLPKPLLEREDLPEVASPEALRPLLPRRPLTAHKGSVGRVGVLGGYQGEDLRYAGAPLLAALGAYRMGAGLVHLVAPEGTPLEPLEAVFHPVPSPALPPLKAEALAVGMGGGPWGRAWALKALEARLPTVLDADALHPEVAEAYRKAGVPAVLTPHAGEAGRLLGISPEEVAKDPLGAARALAERTGLAVVLKGNPTVVAEGERLSVNPTGNPALATGGTGDVLSGAIAALLAAGLRPFDAARLGVFLHGLAGDLLAEEKGVGLLAREVAEALPRARRLLQEGRVPPAFFPR | soluble |
| MGSDKIHHHHHHMERSDAAMQPDAVSRPEIVMATRGITMLFPGTKALDNVDYNVYRGKVNVIIGENGAGKSTLMKILAGVQQPTSGQILLNGEAVRIADTRDAAAKGIGMVHQELNLSENLSVAENIFLGRELQKGVAPIDYLEQERIAAELMSRLDQAISPRTEVASLKVGQQQLVEIAKALADQADILILDEPTSALSKTEVEILFRVIRELTRQNVSIIYISHRLEELMAIGDYITILRDGCFQAEAAVSDIDVPWIVREMLGGDPVTSFLHSGRTFGAPILEAEHLTCLNDAGHQVVNDVSLMVREGEIVGIYGLMGAGRTELFECLLGIQNDYLGKIYLDSKPVSPRLSTAQRIRMGMSLVPEDRKKTGIFPLSSVASNLTIASLWRRLKYGMAIFQRQEQEVVASTVGRLAIKVSSPEVEIQALSGGNQQKVVIGRSLLTSPKVLLLDEPTRGIDVGAKADVFEMMVGLSEQGIGVLFSTSDLKEIMAVSDRILVMSNGKLTANIVRQSASESALVSASAQGF | not soluble |
| INALVIGDLMLDQYLWGKAERISPEAPVQVVDVTREEIRIGGAGNVANNLVALGCRVSVASVVGGDENGTILLHAFSGKGIDVTGIVEDPSRTTSRKTRVLASNQQIVRIDRESRDEIGPDNERRIVDYLNAHGDRFNVILVSDYLKGVLTPTLLAEVIAFARKREIPVVVDPKGSDYAKYRGATVLTPNRKEAEAASGIAIRDDESLCRAGERLLETADLTALVITRSEEGMSLFLRGGQVVHIPTYAREVFDVTGAGDTVLAVLGMALAGGVGFADGARLANVAAGVAVGKVGTSTVSPAEIVGSLG | not soluble |
| MSTDITPSSAPQCPDHIVFEHVTKEFRTRSGTVRALDDVSLAIKRGSISAVIGHSGAGKSTLVRLINGLETPTRGRVLVDGTDVSQLSDKAMRPLRADIGMIFQQFNLFGSRTIYDNVAYPLKLAHWKKADEKKRITELLSFVGLTSKAWDHPDQLSGGQKQRVGIARALATKPSILLADESTSALDPETTADVLSLLKRVNAELGVTVVVITHEMEVVRSIAQQVSVLAAGHLVESGSARQVFAHPQSETTQRFLATIIGQHPNGEEQARLQSENPHARLVDVSSVASHSFGDALARISHTGASFQIVHGGVIEVHDGSLGNYTVALSGPAQAVEQAVQILEEVSNSAAPTTSATVPTPTEEAHLEHHHHHH | not soluble |
| MSLYTYIDLFAGPGGLCTGFKNAGFKPLIAVEMSDNTVKTYARNHEAEVYSLQELLENKGRLEEILNINTDNTCLIHGDIRLVDNDIIVEILQKKFKTNSVDVVAGGPPCESFSLAGKRIDGDERDDLFKNMLRIASISNSKFIFFENVPGLLTKKSNNIKVFDVIVEEFDNYGYNLASTDKNIIKCLAADYGVPQNRERVFLIGINKMYGENPYIYPEKTHGEGRKFEYISVSDALRYLPELNSGEGADIQQITYNFEEDFRKGKISEAVYNYLKFIAGKEGYIPPHIKESIDDGLIEIHKAVKHREKMINRMSYIKQGEGMKKAAERLINEGKEDIVRAYFPNKLYAARNRRLKANEPSFTVTSHCLDEMVHPYNNRGLTPREAARLQSFPDWYVFEGEYVKFHSDPQQDKYEQCGDAIPVLLVKALAEQLKIALNIVSERTSINEGHHHHHH | not soluble |
| MGSDKIHHHHHHMKEIPGLVKKAQIDKHDLTWLEESEVDDRVQQRRYGTTQAAELAGISVGLLYAAEQDGRLPEPEYRSDTARKVRAGYTINHINHMQRVFNTAPRKPEGSSAAIAGILNLKGGSQKTTTCHLFSQYLAIRGYRCLLLDTDPQGSLSFYFGKRPDDNVHYENTVAPFFLEDDEALVEAGHPEGASRSLHYAIQKTYWDNIDIIPACLQNLNIDLLMPSVMNEANVPMLDRIMKLRNGLLEVGENYDFIIIDGTPSLNLSTLNVVSACDVCFVPTPAAMLDFASTLQFAGLVAETAEMYKQEKMYPNIPDMRYFITKYSGSSYAHFMGQIIRRVFTVERGDVLSTEAHASDEIGKANTSTYSIYEKNPAESDNRKRLKKTIEMFDRLFEEMHDAVWETCFEDALRSSHLDKIDEIMSSADLARDDLKRANRLSDKEA | not soluble |
| MGHHHHHHGGHMSLEEVLEAAEKIRSMEVRGAARIARFAAETLMKFAEKASDEKFDEEMRFAAETLLNTRPTAVSLYNAINYVMRYSGESVEEKRQSVIRRAREFINWVETAQRKIGEIGEKRIKDGYTVMTHCNSSAALSVIKKAHENGKRVEVIATESRPRWQGHLTVKQLREAGIEVTLIVDSAVRYFINEVDCVVVGADTITANGALINKIGTSQIALAAKEARVPFMVAAETYKFSPKTLFGELVVIEERDAREVAPEEILKLGVKVRNPAFDVTPRDYIDVIITEIGAIPPEMAYIVITERLGYAGIEEEEITLNSRHFDEGGS | soluble |
| MAHHHHHHMGTLEAQTQGPGSMLTYFHPDQSLHHPRTYFSRGRMRMPQEVPERAARLVAAAFAMGFPVREPDDFGIAPIAAVHDTHYLRFLETVHREWKAMPEDWGDEAMSNIFVREPNALRGVLAQAARHLADGSCPVGEHTWRAAYWSAQSALAAAAAVRDGAPAAYALCRPPGHHARVDAAGGFCYLNNAAIAAQALRARHARVAVLDTDMHHGQGIQEIFYARRDVLYVSIHGDPTNFYPAVAGFDDERGAGEGLGYNVNLPMPHGSSEAAFFERVDDALRELRRFAPDALVLSLGFDVYRDDPQSQVAVTTDGFGRLGHLIGALRLPTVIVQEGGYHIESLEANARSFFGGFGALRG | soluble |
| GHMYEVDHADVYDLFYLGRGKDYAAEASDIADLVRSRTPEASSLLDVACGTGTHLEHFTKEFGDTAGLELSEDMLTHARKRLPDATLHQGDMRDFRLGRKFSAVVSMFSSVGYLKTTEELGAAVASFAEHLEPGGVVVVEPWWFPETFADGWVSADVVRRDGRTVARVSHSVREGNATRMEVHFTVADPGKGVRHFSDVHLITLFHQAEYEAAFTAAGLRVEYLEGGPSGRGLFVGVPA | soluble |
| MGSDKIHHHHHHMTDLADLTCVGPGTPMGTLMRQYWVPAAKSSELKRDGDPMRLMLLGEKLIAFRDSEGRVGVLDHRCPHRCASLFLGRNEESGIRCVYHGWKFDVAGRCVDMPSVPPHQDFKDKVHAKAFRTAERNGLVWVYMGDAAEPPPLPAIEANLVADCEIWCLQRDCNWLQALEGDIDTSHVGFLHVGSLKPDDLADDHPMRPTVLDRAPEYAVTNTAWGTMYGGYRPNDDGQRSWRVAHFMFPFWTQTPNNRFSSRAIARAWVPMDDEHSMLFDITCGVDEGNPAYSSTRKTGEPLFAPFEYAPATTDWFGRWRCVDDRRNDWGIDRELQRNGSQYTGIPNITMQDQAVTESMGPIIDHSYEHLAPTDQMIARTRRRLLLATQALSEQGTLPPGAQDSDVFFGARAGSFLCDPGLPFETAYATQLETATRWAGDKVVS | not soluble |
| MRVFALQLESFKENLMQSLFNSIPKKSVIVLPEYVINPFFHHNMGLDVNEISDQSARAVEFLSQKCEELDLIVSAPVLLEEHSKIYKKIALISKESVKYYTQQRLIPYPHWDEESFFDNEKSAFKELLVFERDGLKFAPLFGFEAHFDEIWVQAKNQGVDVVLLSSVATFESNERWRLLCQMRAFCASCVVVRANRIGAYRQIIVEEDQKNEFLWKFYGDSFVALPNGAIEDSLEGKMGALNAQIDKNDIDEWAKLWHFRTIKEGLEHHHHHH | not soluble |
| MKIAIEGCMHGDLDNVYKTIQHYEQIHNTKVDLLLCCGDFQAVRNEKDMDSLNVPRKYREMKSFWKYYSGQEVAPIPTIFIGGNHEASNYLWELYYGGWAATNIYFLGFAGVVKFGNVRIGGLSGIYNERHYRSGHFERPPYNESTIRSVYHVRDYDVQKLMQLEEPLDIFLSHDWPVGITDYGDSESLMRQKPYFRQEIEEKTLGSKPAALLLEKLKPQYWFSAHLHCKFAAAVQHGNDGSVTKFLALDKCLPGKKFLQIIEIESEPGPFEVLYDEEWLAITRKFNSIFPLTRRYTNVRYTIPNKLPTKKWERTDIPASLAPSDTYSVKLFIYSFYLPIVMKLHQAPMTEMFSAVSRIKHVLLCIADLPTYDSEEIPIDDIDEIEEMEEAKADDHTRDDA | soluble |
| MSLTEATVERIRLFLIESPIKMARLQGVGNVKGTVKRVLIELTSSDGVIGWGEAAPWEVFTGTPEAAFSALDIYLRPIALGKPVRRIRALMAELDRALVGHAEAKVAIEMALLDIVGKSSGLSVADLLGGRVRDTIPLSFSIADPDFPADLERMRKMVPDGNVIYKVKTGVKPHREDLDHLEAIRKEFGDKVDLRVDYNQALAPFGAIKILRDVEEFAPTFIEQPVPRKYLDVMAQLTAALETPVLADESCFDRRDMMEVVRREAADAVSIKLMKAGGLFEAQAIMAIADIAGLPGYGGTLWEGGIGLAAGTQLIAATPGISLGCEFYMPHHVLTEDVLEERVANRAGHVVVPDGPGLGIRVSEASVRANAQVLAEGHHHHHH | not soluble |
